From patent publication US20160251438A1 (LUDWIG INSTITUTE FOR CANCER RESEARCH, published 2016)

Tests used:
Experiment in all cases: flow cytometry on transfected 293T cells, 5 ug/ml; grade of Loss of binding read by footnote 2
[1] = molecular target: GARP A114R / TGF-β1 complex (human, UniProt Q14392 20-662; P01137 30-390)
Text: (§1) Resolution of the crystal structure of MHG-8 Fab/GARP/TGF-β1 complexes and analysis with the CONTACT software allowed the identification of 22 amino-acids in GARP, 8 amino-acids in LAP and 6 amino-acids in mature TGF-β1 that are located less than 5 Å away from an amino-acid of the light or heavy chain of the MHG-8 Fab (Tables 7a, b and c, and Table 8). Directed mutagenesis was used to construct plasmids encoding HA-tagged forms of GARP or TGF-β1 that are mutated at one, two, or three of these 36 positions (all mutations constructed are indicated in Table 8). […] Antibodies were used at a saturating concentration of 5 μg/ml for labeling. Binding of each antibody to a given mutant GARP/TGF-β1 complex was compared to their binding to wild type (WT) complexes, by determining an I_{m/wt} value (i.e. intensity of binding to mutant by comparison to WT). This value was calculated as follows: I_{m/wt} of antibody X=[Geom on mutant−Geom on control]/[Geom on WT−Geom on control]
(§2) The level of residual binding of anti-GARP or anti-LAP antibodies to each mutant was then calculated by comparison to WT, taking into account the expression levels of mutant and WT forms as measured with anti-HA antibodies. Residual binding was calculated as follows: Residual binding by an anti-GARP or anti-LAP antibody=[I_{m/wt} with anti-GARP or anti-LAP antibody]/[I_{m/wt} with anti-HA antibody]

[2] = molecular target: GARP G118L/G119L / TGF-β1 complex (human, UniProt Q14392 20-662; P01137 30-390)
GARP G118L/G119L / TGF-β1 complex, sequence (Q14392 20-662 G118L/G119L limits assumed, chain 1 of 2): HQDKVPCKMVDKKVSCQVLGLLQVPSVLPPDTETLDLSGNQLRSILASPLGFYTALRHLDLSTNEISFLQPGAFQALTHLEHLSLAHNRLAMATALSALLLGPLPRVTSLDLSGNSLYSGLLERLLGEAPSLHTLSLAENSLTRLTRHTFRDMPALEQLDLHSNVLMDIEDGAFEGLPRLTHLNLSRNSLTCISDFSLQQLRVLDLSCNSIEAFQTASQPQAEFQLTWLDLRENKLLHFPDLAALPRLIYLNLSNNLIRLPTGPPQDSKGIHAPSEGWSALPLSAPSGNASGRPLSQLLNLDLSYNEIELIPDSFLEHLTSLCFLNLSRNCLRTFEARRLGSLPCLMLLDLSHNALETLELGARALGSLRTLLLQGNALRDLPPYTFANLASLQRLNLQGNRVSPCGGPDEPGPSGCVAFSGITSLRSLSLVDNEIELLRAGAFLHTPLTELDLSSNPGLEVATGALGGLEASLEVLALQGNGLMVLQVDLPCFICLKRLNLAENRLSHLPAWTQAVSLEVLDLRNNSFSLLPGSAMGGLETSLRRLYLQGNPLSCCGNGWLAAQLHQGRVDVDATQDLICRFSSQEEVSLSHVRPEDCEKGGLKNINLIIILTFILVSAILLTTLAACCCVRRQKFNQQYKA
GARP G118L/G119L / TGF-β1 complex, sequence (P01137 30-390 limits assumed, chain 2 of 2): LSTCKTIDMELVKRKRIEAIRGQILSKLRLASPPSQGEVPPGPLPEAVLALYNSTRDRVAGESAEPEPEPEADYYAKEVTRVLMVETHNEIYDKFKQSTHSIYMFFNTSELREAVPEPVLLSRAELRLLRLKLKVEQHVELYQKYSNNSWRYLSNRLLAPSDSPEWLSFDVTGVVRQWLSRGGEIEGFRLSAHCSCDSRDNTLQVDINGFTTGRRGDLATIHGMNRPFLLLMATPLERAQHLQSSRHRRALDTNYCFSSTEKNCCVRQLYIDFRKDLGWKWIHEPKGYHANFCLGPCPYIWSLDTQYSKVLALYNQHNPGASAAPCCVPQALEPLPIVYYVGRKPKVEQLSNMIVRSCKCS
Text: as §1, §2

[3] = molecular target: GARP Y137H/S138G/G139N / TGF-β1 complex (human, UniProt Q14392 20-662; P01137 30-390)
Text: as §1, §2

[4] = molecular target: GARP T162D / TGF-β1 complex (human, UniProt Q14392 20-662; P01137 30-390)
Text: as §1, §2

[5] = molecular target: GARP R163E / TGF-β1 complex (human, UniProt Q14392 20-662; P01137 30-390)
Text: as §1, §2

[6] = molecular target: GARP R163A/T165A / TGF-β1 complex (human, UniProt Q14392 20-662; P01137 30-390)
Text: as §1, §2

[7] = molecular target: GARP T165A / TGF-β1 complex (human, UniProt Q14392 20-662; P01137 30-390)
Text: as §1, §2

[8] = molecular target: GARP R166M/H167E / TGF-β1 complex (human, UniProt Q14392 20-662; P01137 30-390)
GARP R166M/H167E / TGF-β1 complex, sequence (Q14392 20-662 R166M/H167E limits assumed, chain 1 of 2): as the sequence (Q14392 20-662 G118L/G119L limits assumed, chain 1 of 2) above, with L99G, L100G, R147M, H148E counted along it
GARP R166M/H167E / TGF-β1 complex, sequence (P01137 30-390 limits assumed, stated change not applied, chain 2 of 2): as the sequence (P01137 30-390 limits assumed, chain 2 of 2) above
Text: as §1, §2

[9] = molecular target: GARP E189A / TGF-β1 complex (human, UniProt Q14392 20-662; P01137 30-390)
GARP E189A / TGF-β1 complex, sequence (Q14392 20-662 E189A limits assumed, chain 1 of 2): as the sequence (Q14392 20-662 G118L/G119L limits assumed, chain 1 of 2) above, with L99G, L100G, E170A counted along it
GARP E189A / TGF-β1 complex, sequence (P01137 30-390 limits assumed, chain 2 of 2): as the sequence (P01137 30-390 limits assumed, chain 2 of 2) above
Text: as §1, §2

[10] = molecular target: GARP / TGF-β1 R58A complex (human, UniProt Q14392 20-662; P01137 30-390)
Text: as §1, §2

[11] = molecular target: GARP / TGF-β1 E100A complex (human, UniProt Q14392 20-662; P01137 30-390)
Text: as §1, §2

[12] = molecular target: GARP / TGF-β1 E146R complex (human, UniProt Q14392 20-662; P01137 30-390)
Text: as §1, §2

[13] = molecular target: GARP / TGF-β1 H270Y complex (human, UniProt Q14392 20-662; P01137 30-390)
Text: as §1, §2

[14] = molecular target: GARP / TGF-β1 Y284A complex (human, UniProt Q14392 20-662; P01137 30-390)
Text: as §1, §2

[15] = molecular target: GARP / TGF-β1 S337A complex (human, UniProt Q14392 20-662; P01137 30-390)
Text: as §1, §2

[16] = molecular target: GARP / TGF-β1 K338E complex (human, UniProt Q14392 20-662; P01137 30-390)
Text: as §1, §2

[17] = molecular target: GARP / TGF-β1 A341Y complex (human, UniProt Q14392 20-662; P01137 30-390)
Text: as §1, §2

[18] = molecular target: GARP / TGF-β1 Q345A complex (human, UniProt Q14392 20-662; P01137 30-390)
Text: as §1, §2

GARP A114R / TGF-β1 complex, sequence (Q14392 20-662 A114R limits assumed, chain 1 of 2): as the sequence (Q14392 20-662 G118L/G119L limits assumed, chain 1 of 2) above, with A95R, L99G, L100G counted along it
GARP A114R / TGF-β1 complex, sequence (P01137 30-390 limits assumed, chain 2 of 2): as the sequence (P01137 30-390 limits assumed, chain 2 of 2) above

residual binding on mutant by comparison to WT [1]: ≥ 50%
residual binding on mutant by comparison to WT [2]: ≥ 50%
residual binding on mutant by comparison to WT [3]: < 50%
residual binding on mutant by comparison to WT [4]: < 50%
residual binding on mutant by comparison to WT [5]: < 50%
residual binding on mutant by comparison to WT [6]: ≥ 50%
residual binding on mutant by comparison to WT [7]: ≥ 50%
residual binding on mutant by comparison to WT [8]: ≥ 50%
residual binding on mutant by comparison to WT [9]: ≥ 50%
residual binding on mutant by comparison to WT [10]: ≥ 50%
residual binding on mutant by comparison to WT [11]: ≥ 50%
residual binding on mutant by comparison to WT [12]: ≥ 50%
residual binding on mutant by comparison to WT [13]: ≥ 50%
residual binding on mutant by comparison to WT [14]: ≥ 50%
residual binding on mutant by comparison to WT [15]: ≥ 50%
residual binding on mutant by comparison to WT [16]: < 50%
residual binding on mutant by comparison to WT [17]: ≥ 50%
residual binding on mutant by comparison to WT [18]: ≥ 50%
B1: LHG-10 (antibody, human IgG1, V domains shown)
VH: EVQLVQPGAELRNSGASVKVSCKASGYRFTSYYIDWVRQAPGQGLEWMGRIDPEDGGTKYAQKFQGRVTFTADTSTSTAYVELSSLRSEDTAVYYCARNEWETVVVGDLMYEYEYWGQGTQVTVSS
VL: DIQMTQSPTSLSASLGDRVTITCQASQSISSYLAWYQQKPGQAPKLLIYGASRLQTGVPSRFSGSGSGTSFTLTISGLEAEDAGTYYCQQYDSLPVTFGQGTKVELK
notes: llama-derived V regions in a full human IgG1
